# Test results published in patent US20150260731A1 (ACUMEN PHARMACEUTICALS, published 2015).
# Target: T1, amyloid β-derived diffusible ligands (ADDLs), oligomers of Aβ1-42
# T1 construct: number of chains not fixed; also called Aβ oligomers; Aβ1-42 oligomers
# Test: sandwich ELISA, 6E10 as capture and as detection antibody, Aβ oligomers titrated (log RFU axis)
binder,measurement,value
"6E10 (antibody, V domains shown) VH: EVQLQQSGAELVKPGASVKLCTASGFNIKDTYIHWVKQRPEQGLEWIGRFDPVNVNTRYDSRFRGKATITSDASSNTAYLHLNSLTSEDTAVYYCSRSYYNGRRRFTYWGQGTLVTVSA VL: DIVMTQSPSSLTVTAGEKVALTCKASQSLLSSGNQKNYLTWYQQKPGQPPKLLIYWASIRESGVPDRFTGSGSGTFFTLTISSVQAEDLAVYYCQNDYNYPFTFGSGTKLEIK",EC50 (read off the curve),~5 nM
